# From the supplement of paper PMC7877785
# ± gives the uncertainty stated by the source.
# Experiment: self-splicing fitness, log relative to wild type (ln ratio); higher = more splicing; Tetrahymena group I intron in knt gene, E. coli kanamycin selection, DiMSum; sequences stand for … in CUCUCU…GGAGGGAAAAGUUAUCAGGCAUGCACCUGGUAGCUAGUCUUUAAACCAAUAGAUUGCAUCGGUUUAAAAGGCAAGACCGUCAAAUUGCGGGAAAGGGGUCAACAGCCGUUCAGUACCAAGUCUCAGGGGAAACUUUGAGAUGGCCUUGCAAAGGGUAUGGUAAUAAGCUGACGGACAUGGUCCUAACCACGCAGCCAAGUCCUAAGUCAACAGAUCUUCUGUUGAUAUGGAUGCAGUUCACAGACUAAAUGUCGGUCGGGGAAGAUGUAUUCUUCUCAUAAGAUAUAGUCGGACCUCUCCUUAAUGGGAGCUAGCGGAUGAAGUGAUGCAACACUGGAGCCGCUGGGAACUAAUUUGUAUGCGAAAGUAUAUUGAUUAGUUUUGGAGUACUCGUGGUCG
# Procedure, shortened: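 Six replicate transformations of E. coli BL21(DE3) with a pET-22b(+) library were grown overnight at 37°C or 30°C. The library randomised all eight P1ex-region intron nucleotides, the intron lying in the knt kanamycin-resistance gene, and plates were LB agar with or without 25 μg/mL kanamycin plus 100 μg/mL carbenicillin, 50 μM IPTG and 0.2% rhamnose. Pooled colonies were amplicon-sequenced on an Illumina HiSeq 2500, and fitness is the DiMSum error-weighted combination of wild-type-normalised replicate fold changes, kanamycin versus none.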
Sequence,self-splicing fitness (ln) (30 °C),self-splicing fitness (ln) (37 °C)
GGCUAGCAAUAUUACGCAUA,0.253 ± 0.13,0.0704 ± 0.15
UAACAGCAAUAUUACGGCCC,-2.08 ± 0.35,–
UUUUAGCAAUAUUACGUCUA,-0.819 ± 0.23,-0.292 ± 0.2
AUCGAGCAAUAUUACGAUGA,-3.37 ± 0.25,-1.86 ± 0.16
CUUCAGCAAUAUUACGAAGG,-2.06 ± 0.13,-1.08 ± 0.18
ACACAGCAAUAUUACGCUUG,-1.24 ± 0.063,-0.733 ± 0.076
UGUAAGCAAUAUUACGUGUC,-3.77 ± 0.2,-2.01 ± 0.17
CUGAAGCAAUAUUACGGCGG,-0.674 ± 0.073,-0.503 ± 0.1
UUAAAGCAAUAUUACGGGGG,-1.83 ± 0.13,-2.16 ± 0.2
CUAAAGCAAUAUUACGGUCG,0.0851 ± 0.065,0.151 ± 0.086
GAAGAGCAAUAUUACGGAAC,–,-0.903 ± 0.29
UCUGAGCAAUAUUACGUGCA,-2.65 ± 0.19,-1.99 ± 0.22
CAGCAGCAAUAUUACGUCCG,0.0818 ± 0.076,0.283 ± 0.086
GGGUAGCAAUAUUACGGUGC,-1.9 ± 0.085,-1.34 ± 0.092
CCCGAGCAAUAUUACGGGAG,-3.25 ± 0.24,-1.5 ± 0.19
UAAUAGCAAUAUUACGUUUA,-1.86 ± 0.15,-1.81 ± 0.12
UUUCAGCAAUAUUACGUCUC,-3.39 ± 0.4,-0.735 ± 0.17
UAUCAGCAAUAUUACGCUAA,-0.647 ± 0.084,0.529 ± 0.099
GUGAAGCAAUAUUACGCGGA,-1.24 ± 0.09,-1.13 ± 0.14
UGUGAGCAAUAUUACGACGC,-2.98 ± 0.33,-2.67 ± 0.38
UUUAAGCAAUAUUACGCUUG,-3.29 ± 0.23,-1.4 ± 0.26
CAACAGCAAUAUUACGGUCU,-3.01 ± 0.11,-2.07 ± 0.095
AAAGAGCAAUAUUACGGGCC,-2.09 ± 0.3,-1.86 ± 0.41
AAUGAGCAAUAUUACGUUUC,-4.31 ± 0.24,-2.98 ± 0.25
UGUAAGCAAUAUUACGCGCA,-0.603 ± 0.14,-0.167 ± 0.17

Sequence,self-splicing fitness (ln) (30 °C),self-splicing fitness (ln) (37 °C)
UACUAGCAAUAUUACGAAUU,-4.02 ± 0.42,-2.32 ± 0.25
UAACAGCAAUAUUACGUGAG,-0.729 ± 0.046,-0.471 ± 0.071
ACACAGCAAUAUUACGACGU,-0.452 ± 0.048,0.722 ± 0.073
GACAAGCAAUAUUACGGGGG,-3.58 ± 0.15,-3.18 ± 0.2
GCCGAGCAAUAUUACGUCUG,-3.36 ± 0.32,-2 ± 0.27
UUGAAGCAAUAUUACGGGCU,-3.02 ± 0.14,-1.16 ± 0.1
AAUUAGCAAUAUUACGAUGA,-0.632 ± 0.094,-0.429 ± 0.11
GGGGAGCAAUAUUACGAGUA,-2.89 ± 0.3,-2.98 ± 0.43
UUCUAGCAAUAUUACGAUAA,-1.46 ± 0.16,-0.147 ± 0.19
UGGUAGCAAUAUUACGACUU,-0.197 ± 0.16,0.212 ± 0.16
CGAGAGCAAUAUUACGUAUC,-3.63 ± 0.25,-1.87 ± 0.38
CUUGAGCAAUAUUACGAAGA,-2.53 ± 0.27,-3.17 ± 0.37
AUUAAGCAAUAUUACGAAAC,-3.37 ± 0.16,-1.6 ± 0.15
CUACAGCAAUAUUACGCGCC,-3.98 ± 0.35,-2.3 ± 0.41
UCACAGCAAUAUUACGCAGG,-3.13 ± 0.13,-1.52 ± 0.11
AUAGAGCAAUAUUACGGCUA,0.361 ± 0.077,0.0589 ± 0.098
UCCAAGCAAUAUUACGCCGU,-0.285 ± 0.13,-0.0434 ± 0.19
GAGCAGCAAUAUUACGGAAA,-3.08 ± 0.24,-2.84 ± 0.21
GACCAGCAAUAUUACGCGCA,-0.663 ± 0.065,0.131 ± 0.093
GUGCAGCAAUAUUACGCACA,-3.26 ± 0.18,-1.67 ± 0.12
AAAAAGCAAUAUUACGAGCG,-0.337 ± 0.12,-0.566 ± 0.11
ACCAAGCAAUAUUACGAGAC,-3.68 ± 0.18,-2.86 ± 0.21
UGCAAGCAAUAUUACGAGGU,-3.41 ± 0.23,-2.26 ± 0.17
CGACAGCAAUAUUACGCUCC,-1.44 ± 0.12,0.42 ± 0.13
CGUGAGCAAUAUUACGCGCU,–,-1.8 ± 0.36

Sequence,self-splicing fitness (ln) (30 °C),self-splicing fitness (ln) (37 °C)
UGUUAGCAAUAUUACGGUGC,-3.76 ± 0.43,-2.88 ± 0.32
GAAAAGCAAUAUUACGCCCG,-0.583 ± 0.14,-0.75 ± 0.21
GCCCAGCAAUAUUACGGUUA,-0.529 ± 0.054,0.488 ± 0.062
UCAUAGCAAUAUUACGGGGU,-4.08 ± 0.27,-1.67 ± 0.18
CCGCAGCAAUAUUACGAGCG,-2.4 ± 0.12,-0.494 ± 0.11
CGCAAGCAAUAUUACGAUUU,-2.45 ± 0.16,-2.33 ± 0.18
AAUCAGCAAUAUUACGGUGU,0.0362 ± 0.059,0.393 ± 0.072
GGUCAGCAAUAUUACGAAUA,-0.866 ± 0.13,-0.645 ± 0.14
GUUGAGCAAUAUUACGUGGC,-3.09 ± 0.25,-2.17 ± 0.28
CCUUAGCAAUAUUACGUUAA,-3.13 ± 0.27,-2.71 ± 0.31
AGUCAGCAAUAUUACGCACA,-0.062 ± 0.12,-0.284 ± 0.14
CAUUAGCAAUAUUACGCGCC,-3.41 ± 0.32,-2.26 ± 0.35
GUCGAGCAAUAUUACGCGAA,-1.39 ± 0.17,0.0361 ± 0.17
GCGCAGCAAUAUUACGUAUA,-1.31 ± 0.06,-1.05 ± 0.081
UUCGAGCAAUAUUACGGGAU,-3.04 ± 0.25,-2.05 ± 0.19
UAUCAGCAAUAUUACGAGAC,-2.38 ± 0.33,-1.75 ± 0.44
ACGGAGCAAUAUUACGAGGA,-2.89 ± 0.27,-2.92 ± 0.43
UCGAAGCAAUAUUACGAAAU,–,-2.56 ± 0.41
AUGGAGCAAUAUUACGGGGU,–,-2.27 ± 0.37
GUAGAGCAAUAUUACGUGCA,-0.339 ± 0.11,0.541 ± 0.18
GUGAAGCAAUAUUACGAGGA,–,-0.805 ± 0.32
CUUGAGCAAUAUUACGCUGG,-3.81 ± 0.25,-2.17 ± 0.17
AUGGAGCAAUAUUACGAUGU,-1.25 ± 0.14,-0.184 ± 0.2
GCCAAGCAAUAUUACGAGAG,-2.88 ± 0.34,-1.53 ± 0.22
GACUAGCAAUAUUACGUUAG,-4.25 ± 0.23,-3.17 ± 0.23

Sequence,self-splicing fitness (ln) (30 °C),self-splicing fitness (ln) (37 °C)
CGUGAGCAAUAUUACGCUAG,-2.9 ± 0.12,-1.47 ± 0.21
UGCCAGCAAUAUUACGAGAC,-3.05 ± 0.2,-2.05 ± 0.26
GUACAGCAAUAUUACGUGGU,-3.43 ± 0.16,-2.49 ± 0.17
CAUAAGCAAUAUUACGUAAA,-3.55 ± 0.25,-2.11 ± 0.17
CGACAGCAAUAUUACGCUGG,-3.13 ± 0.18,-2.1 ± 0.17
UUACAGCAAUAUUACGAGGA,-2.24 ± 0.19,-0.838 ± 0.15
AGGAAGCAAUAUUACGUAUA,-1.79 ± 0.17,-2.16 ± 0.24
GCCGAGCAAUAUUACGCAGA,-3.39 ± 0.47,-2.39 ± 0.29
UAACAGCAAUAUUACGUACC,-0.513 ± 0.19,-1.7 ± 0.24
ACACAGCAAUAUUACGAGAG,-3.65 ± 0.14,-2.37 ± 0.12
UUCUAGCAAUAUUACGGAAU,-4.1 ± 0.39,-1.91 ± 0.33
GAUAAGCAAUAUUACGGUAG,-3.17 ± 0.23,-2.35 ± 0.27
ACAGAGCAAUAUUACGCCGU,-2.59 ± 0.35,-0.807 ± 0.33
UCUAAGCAAUAUUACGAGUG,-0.69 ± 0.092,-0.683 ± 0.14
AGAUAGCAAUAUUACGGAUG,-2.96 ± 0.19,-2.3 ± 0.28
GCCUAGCAAUAUUACGUCCU,-1.68 ± 0.068,-0.494 ± 0.096
CAGGAGCAAUAUUACGUCAA,-3.36 ± 0.2,-3.44 ± 0.33
ACCUAGCAAUAUUACGAUAU,-1.58 ± 0.092,-0.443 ± 0.12
CUGUAGCAAUAUUACGAACC,-2.02 ± 0.47,–
AAUCAGCAAUAUUACGACUC,-0.0136 ± 0.086,0.129 ± 0.11
AUACAGCAAUAUUACGUUCC,-2.46 ± 0.15,-0.684 ± 0.14
GGACAGCAAUAUUACGGUCC,-3.67 ± 0.26,-2.28 ± 0.23
